The supplement of paper PMC6757056
± gives the standard deviation of the averaged measurements.

B1: library; a variant is named by its letters at N, in order (parent)
chain: GCUGUCACCGAGAAACUGUGAAGUAUAUCUUAAACCUGGGCACUUAAAAGAUAUAUGGAGUUAGUAGUGCAACCUGCUCGGUCUGAUGAGUCCNNNNNNGGACGAAACAGC

Experiments:
cyclic di-GMP [1] = variants of: B1; experiment: normalized RNA/DNA level without ligand (relative to sTRSVctl = 100) (log10 (% of sTRSVctl)); HEK293T; ligand: cyclic di-GMP (c-di-GMP-II aptamer); higher = less ribozyme self-cleavage, higher mRNA level; conditions: reporter: mCherry (pCS4076), ligand present: no
Procedure, shortened: (§1)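 Ribozyme switch library plasmids linked to reporters were introduced into HEK293T cells at 4 µg per 6-well well, with ligand, if any, added 1 h before. Total RNA was extracted with EDTA 72 h later, reverse-transcribed, amplified, barcoded and sequenced. RNA level was computed from RNA over DNA reads relative to a spiked-in non-cleaving sequence or the top sequences, then scaled and log-transformed. The top set was 25 sequences, values were ×100 and log10, and the cutoff was ≥100 DNA reads.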

cyclic di-GMP [2] = variants of: B1; experiment: normalized RNA/DNA level with ligand (relative to sTRSVctl = 100) (log10 (% of sTRSVctl)); HEK293T; ligand: cyclic di-GMP (c-di-GMP-II aptamer); ligand concentration (+) RNA-Seq: 1 mM; higher = less ribozyme self-cleavage, higher mRNA level; conditions: reporter: mCherry (pCS4076), ligand present: yes
Procedure, shortened: as §1

Row | Variant | normalized RNA/DNA level without ligand (log10) (cyclic di-GMP [1]) | normalized RNA/DNA level with ligand (log10) (cyclic di-GMP [2])
1 | UGCUUC | 1.766 ± 0.017 | 1.89 ± 0.093
2 | GCCCGU | 1.73 ± 0.048 | 1.84 ± 0.14
3 | GAAGCU | 1.715 ± 0.017 | 1.83 ± 0.11
4 | CGUUGA | 1.52 ± 0.043 | 1.71 ± 0.14
5 | AUCUUU | 1.69 ± 0.046 | 1.86 ± 0.1
6 | GGCCAC | 1.7289 ± 0.0006 | 1.88 ± 0.083
7 | GUCCGU | 1.65 ± 0.038 | 1.82 ± 0.069
8 | AUCCAU | 1.65 ± 0.048 | 1.81 ± 0.088
9 | AUGGCA | 1.61 ± 0.02 | 1.75 ± 0.046
10 | GGUAUU | 1.61 ± 0.056 | 1.8 ± 0.11
11 | AGUCUA | 1.55 ± 0.016 | 1.77 ± 0.12
12 | UGCUCA | 1.762 ± 0.015 | 1.85 ± 0.09
13 | AAAUCC | 1.71 ± 0.049 | 1.83 ± 0.091
14 | CAUUUG | 1.75 ± 0.062 | 1.91 ± 0.095
15 | CCACCG | 1.74 ± 0.078 | 1.89 ± 0.14
16 | ACCUCG | 1.73 ± 0.056 | 1.83 ± 0.15
17 | UGCGAU | 1.605 ± 0.0035 | 1.8 ± 0.091
18 | GGCUAC | 1.7 ± 0.023 | 1.84 ± 0.085
19 | AAUUAC | 1.72 ± 0.068 | 1.83 ± 0.099
20 | UCGGGA | 1.46 ± 0.035 | 1.72 ± 0.11
21 | UCUCUU | 1.74 ± 0.039 | 1.86 ± 0.089
22 | CUUGGG | 1.74 ± 0.031 | 1.88 ± 0.13
23 | GUGGUU | 1.617 ± 0.0057 | 1.78 ± 0.13
24 | CCGCAA | 1.447 ± 0.014 | 1.68 ± 0.14

Row | Variant | normalized RNA/DNA level without ligand (log10) (cyclic di-GMP [1]) | normalized RNA/DNA level with ligand (log10) (cyclic di-GMP [2])
25 | CGAUAG | 1.7 ± 0.056 | 1.87 ± 0.12
26 | UCUUUC | 1.755 ± 0.014 | 1.86 ± 0.089
27 | UAGAAG | 1.61 ± 0.027 | 1.8 ± 0.11
28 | GAACGC | 1.64 ± 0.07 | 1.78 ± 0.058
29 | UUAGGA | 1.57 ± 0.079 | 1.76 ± 0.089
30 | ACAUCC | 1.68 ± 0.047 | 1.83 ± 0.14
31 | UUGUUA | 1.64 ± 0.022 | 1.81 ± 0.12
32 | GGCUAU | 1.66 ± 0.048 | 1.78 ± 0.021
33 | CGCGCG | 1.83 ± 0.025 | 1.92 ± 0.038
34 | CACCGA | 1.6252 ± 0.00013 | 1.8 ± 0.1
35 | AGGCGU | 1.609 ± 0.0044 | 1.76 ± 0.12
36 | CCGCCU | 1.7 ± 0.0065 | 1.84 ± 0.099
37 | UCAUGG | 1.77 ± 0.019 | 1.9 ± 0.08
38 | CGUCAC | 1.63 ± 0.065 | 1.78 ± 0.062
39 | GGCCUG | 1.82 ± 0.026 | 1.87 ± 0.19
40 | GGGCUC | 1.88 ± 0.051 | 1.98 ± 0.042
41 | GUUGCU | 1.7 ± 0.039 | 1.84 ± 0.1
42 | UGGAGA | 1.58 ± 0.082 | 1.76 ± 0.069
43 | CUGUAG | 1.66 ± 0.051 | 1.84 ± 0.1
44 | ACGCGU | 1.504 ± 0.0098 | 1.71 ± 0.14
45 | UCUAUC | 1.698 ± 0.013 | 1.84 ± 0.086
46 | ACAUGA | 1.3 ± 0.07 | 1.53 ± 0.13
47 | GAGGUA | 1.698 ± 0.0042 | 1.77 ± 0.1
48 | UACUAC | 1.75 ± 0.037 | 1.87 ± 0.08

Row | Variant | normalized RNA/DNA level without ligand (log10) (cyclic di-GMP [1]) | normalized RNA/DNA level with ligand (log10) (cyclic di-GMP [2])
49 | AUGCUC | 1.74 ± 0.052 | 1.85 ± 0.046
50 | AAUCUA | 1.55 ± 0.055 | 1.75 ± 0.071
51 | UUAAUU | 1.76 ± 0.072 | 1.88 ± 0.12
52 | UGCCGC | 1.774 ± 0.015 | 1.9 ± 0.049
53 | AGACUC | 1.74 ± 0.054 | 1.83 ± 0.094
54 | GGAUCC | 1.86 ± 0.058 | 1.93 ± 0.055
55 | UCGUCG | 1.74 ± 0.03 | 1.88 ± 0.085
56 | CUCUCC | 1.81 ± 0.029 | 1.91 ± 0.11
57 | CAUCUA | 1.4 ± 0.058 | 1.58 ± 0.066
58 | UGCUCG | 1.77 ± 0.059 | 1.89 ± 0.16
59 | CGUAUG | 1.73 ± 0.019 | 1.86 ± 0.13
60 | UAUCGA | 1.609 ± 0.0048 | 1.79 ± 0.12
61 | GUUGGA | 1.56 ± 0.097 | 1.72 ± 0.077
62 | AUUCUC | 1.806 ± 0.0079 | 1.89 ± 0.1
63 | UUGUCC | 1.8 ± 0.026 | 1.89 ± 0.098
64 | CGCGGA | 1.446 ± 0.0059 | 1.62 ± 0.089
65 | AACUUG | 1.66 ± 0.051 | 1.85 ± 0.11
66 | CAAAUG | 1.64 ± 0.017 | 1.82 ± 0.068
67 | UGCGGU | 1.63 ± 0.035 | 1.8 ± 0.12
68 | GGGUUC | 1.79 ± 0.072 | 1.89 ± 0.12
69 | UGAUGG | 1.68 ± 0.081 | 1.83 ± 0.066
70 | CGCACC | 1.7 ± 0.031 | 1.83 ± 0.12
71 | ACCAGG | 1.71 ± 0.037 | 1.77 ± 0.088
72 | GAGUGC | 1.785 ± 0.006 | 1.86 ± 0.13

Row | Variant | normalized RNA/DNA level without ligand (log10) (cyclic di-GMP [1]) | normalized RNA/DNA level with ligand (log10) (cyclic di-GMP [2])
73 | CGGCGG | 1.68 ± 0.059 | 1.81 ± 0.077
74 | GUAACA | 1.68 ± 0.035 | 1.81 ± 0.11
75 | CUUUAU | 1.58 ± 0.047 | 1.79 ± 0.11
76 | GUCUCC | 1.82 ± 0.041 | 1.89 ± 0.15
77 | CUGCAG | 1.73 ± 0.075 | 1.88 ± 0.11
78 | GGAUAC | 1.67 ± 0.049 | 1.78 ± 0.16
79 | GCGUGG | 1.71 ± 0.051 | 1.78 ± 0.14
80 | CACACG | 1.75 ± 0.036 | 1.83 ± 0.095
81 | GUCUUU | 1.7 ± 0.033 | 1.83 ± 0.092
82 | CCCGCU | 1.74 ± 0.024 | 1.88 ± 0.11
83 | UGGGUU | 1.717 ± 0.016 | 1.82 ± 0.16
84 | AUUGGC | 1.67 ± 0.017 | 1.83 ± 0.076
85 | GACAUU | 1.66 ± 0.044 | 1.8 ± 0.074
86 | GACUAU | 1.645 ± 0.009 | 1.81 ± 0.12
87 | GAGGUU | 1.73 ± 0.072 | 1.85 ± 0.083
88 | GUUCUU | 1.7 ± 0.084 | 1.84 ± 0.12
89 | ACUGCC | 1.744 ± 0.016 | 1.88 ± 0.12
90 | UCCUGU | 1.72 ± 0.018 | 1.88 ± 0.059
91 | GUGUUU | 1.72 ± 0.023 | 1.9 ± 0.092
92 | AUUUCU | 1.74 ± 0.06 | 1.87 ± 0.12
93 | ACGAAU | 1.31 ± 0.061 | 1.53 ± 0.079
94 | GUUAUU | 1.679 ± 0.0041 | 1.83 ± 0.11
95 | GAUCCU | 1.7 ± 0.025 | 1.84 ± 0.13
96 | CAUGAG | 1.714 ± 0.012 | 1.84 ± 0.074

Row | Variant | normalized RNA/DNA level without ligand (log10) (cyclic di-GMP [1]) | normalized RNA/DNA level with ligand (log10) (cyclic di-GMP [2])
97 | AAUUUA | 1.61 ± 0.031 | 1.81 ± 0.15
98 | GGCAUG | 1.68 ± 0.085 | 1.7 ± 0.081
99 | GCUUUU | 1.67 ± 0.03 | 1.8 ± 0.11
100 | UUGAAC | 1.691 ± 0.0046 | 1.82 ± 0.11
101 | GAGGCA | 1.81 ± 0.039 | 1.86 ± 0.089
102 | CUGCUA | 1.4 ± 0.025 | 1.57 ± 0.091
103 | AGACCC | 1.79 ± 0.096 | 1.87 ± 0.18
104 | AAUCUU | 1.74 ± 0.09 | 1.86 ± 0.1
105 | GGUUAC | 1.76 ± 0.057 | 1.87 ± 0.033
106 | CUUAUC | 1.73 ± 0.088 | 1.87 ± 0.14
107 | AAUUUG | 1.62 ± 0.071 | 1.75 ± 0.12
108 | GUCCUA | 1.709 ± 0.0036 | 1.88 ± 0.083
109 | CCCUUU | 1.61 ± 0.053 | 1.83 ± 0.096
110 | GUUCAA | 1.62 ± 0.059 | 1.81 ± 0.083
111 | GUAUAC | 1.661 ± 0.0097 | 1.81 ± 0.084
112 | ACCCCC | 1.82 ± 0.064 | 1.91 ± 0.14
113 | UGAGGC | 1.74 ± 0.028 | 1.87 ± 0.12
114 | AUGUCU | 1.7 ± 0.028 | 1.84 ± 0.046
115 | UCAAAG | 1.602 ± 0.012 | 1.77 ± 0.12
116 | UGCAAA | 1.74 ± 0.0094 | 1.84 ± 0.1
